Measured values taken from article PMC9769368.

Molecular target: AAVGo.1 virus-like particles (goat adeno-associated virus capsid, without DNA genome) (goat adeno-associated virus AAVGo.1)
Assay: ELISA; direct ELISA in duplicate; AAV VLPs (2.5 ug/mL) coated on plates in 100 mM NaHCO3 pH 9.6, washed with TBST; N-terminally His-tagged AAVR fragment added, detected with anti-6x His HRP antibody; OD 450 nm; EC50 by nonlinear regression (avidity)

| Substance | fold stronger binding avidity than AAV5 |
| --- | --- |
| His6PKD1, fragment of human AAV receptor (AAVR) with PKD domain 1 (domain or fragment) | 3 fold |
| His6PKD12, fragment of human AAV receptor (AAVR) with PKD domains 1 and 2 (domain or fragment) | 2 fold |
